Consider 44 variants from the Human Domainome abundance scans (Beltran et al. 2025).

± gives the uncertainty stated by the source.

First the molecules themselves.
B1: Kinesin-like protein KIF16B, residues 1213 to 1273; numbered along this chain, Q96L93 (parent)
chain: ETWTVFRRYSRFREMHKTLKLKYAELAALEFPPKKLFGNKDERVIAERRSHLEKYLRDFFS

The data set covers variants of B1. In words: abundance fitness (aPCA) (normalised: wild type 0, dead -1); higher = more abundant; growth selection in yeast, the domain comes from the species named. The following applies: Homo sapiens.
Regarding ETWTVFRRYSRFREMHKTDKLKYAELAALEFPPKKLFGNKDERVIAERRSHLEKYLRDFFS [L19D], the abundance fitness was -1.13 ± 0.34.
The value for ETWTVFRRYSRFREMHKTSKLKYAELAALEFPPKKLFGNKDERVIAERRSHLEKYLRDFFS [L19S] was -1.11 ± 0.19; that for ETWTVFRRYSRFREMHKTRKLKYAELAALEFPPKKLFGNKDERVIAERRSHLEKYLRDFFS [L19R] was -1.07 ± 0.13.
As to ETWTVFRRYSRFREMHKTFKLKYAELAALEFPPKKLFGNKDERVIAERRSHLEKYLRDFFS [L19F], the abundance fitness is -0.146 ± 0.11.
With ETWTVFRRYSRFREMHKTNKLKYAELAALEFPPKKLFGNKDERVIAERRSHLEKYLRDFFS [L19N], the abundance fitness was -0.658 ± 0.36.
Consider ETWTVFRRYSRFREMHKTCKLKYAELAALEFPPKKLFGNKDERVIAERRSHLEKYLRDFFS [L19C], for which the abundance fitness was -0.603 ± 0.22.
The value for ETWTVFRRYSRFREMHKELKLKYAELAALEFPPKKLFGNKDERVIAERRSHLEKYLRDFFS [T18E] was -0.223 ± 0.072; that for ETWTVFRRYSRFREMHKWLKLKYAELAALEFPPKKLFGNKDERVIAERRSHLEKYLRDFFS [T18W] was 0.472 ± 0.073.
With ETWTVFRRYSRFREMHKYLKLKYAELAALEFPPKKLFGNKDERVIAERRSHLEKYLRDFFS [T18Y], the abundance fitness was 0.508 ± 0.29.
Under ETWTVFRRYSRFREMHKKLKLKYAELAALEFPPKKLFGNKDERVIAERRSHLEKYLRDFFS [T18K] stands -0.056 ± 0.13; under ETWTVFRRYSRFREMHKGLKLKYAELAALEFPPKKLFGNKDERVIAERRSHLEKYLRDFFS [T18G], -0.237 ± 0.077; under ETWTVFRRYSRFREMHKALKLKYAELAALEFPPKKLFGNKDERVIAERRSHLEKYLRDFFS [T18A], 0.176 ± 0.087.
Consider ETWTVFRRYSRFREMHKHLKLKYAELAALEFPPKKLFGNKDERVIAERRSHLEKYLRDFFS [T18H], for which the abundance fitness is -0.463 ± 0.37.
On to ETWTVFRRYSRFREMHKCLKLKYAELAALEFPPKKLFGNKDERVIAERRSHLEKYLRDFFS [T18C], for which the abundance fitness is -0.143 ± 0.1.
ETWTVFRRYSRFREMHKNLKLKYAELAALEFPPKKLFGNKDERVIAERRSHLEKYLRDFFS [T18N]: the abundance fitness is -0.514 ± 0.23.
On to ETWTVFRRYSRFREMHKSLKLKYAELAALEFPPKKLFGNKDERVIAERRSHLEKYLRDFFS [T18S], for which the abundance fitness is -0.133 ± 0.076.
For the variant ETWTVFRRYSRFREMHKVLKLKYAELAALEFPPKKLFGNKDERVIAERRSHLEKYLRDFFS [T18V], the abundance fitness is -0.038 ± 0.1.
On to ETWTVFRRYSRFREMHKLLKLKYAELAALEFPPKKLFGNKDERVIAERRSHLEKYLRDFFS [T18L], for which the abundance fitness was -0.247 ± 0.076.
With ETWTVFRRYSRFREMHKRLKLKYAELAALEFPPKKLFGNKDERVIAERRSHLEKYLRDFFS [T18R], the abundance fitness was -0.222 ± 0.086.
Turning to ETWTVFRRYSRFREMHKDLKLKYAELAALEFPPKKLFGNKDERVIAERRSHLEKYLRDFFS [T18D], the abundance fitness was -0.806 ± 0.16.
With ETWTVFRRYSRFREMHKMLKLKYAELAALEFPPKKLFGNKDERVIAERRSHLEKYLRDFFS [T18M], the abundance fitness is -0.06 ± 0.067.
With ETWTVFRRYSRFREMHKTLKIKYAELAALEFPPKKLFGNKDERVIAERRSHLEKYLRDFFS [L21I], the abundance fitness was -0.379 ± 0.27.
Regarding ETWTVFRRYSRFREMHKTLKFKYAELAALEFPPKKLFGNKDERVIAERRSHLEKYLRDFFS [L21F], the abundance fitness was -0.559 ± 0.19.
In the case of ETWTVFRRYSRFREMHKTLKEKYAELAALEFPPKKLFGNKDERVIAERRSHLEKYLRDFFS [L21E], the abundance fitness is 0.352 ± 0.062.
Under ETWTVFRRYSRFREMHKTLKKKYAELAALEFPPKKLFGNKDERVIAERRSHLEKYLRDFFS [L21K] stands 0.339 ± 0.077; under ETWTVFRRYSRFREMHKTLKHKYAELAALEFPPKKLFGNKDERVIAERRSHLEKYLRDFFS [L21H], 0.112 ± 0.094; under ETWTVFRRYSRFREMHKTLKDKYAELAALEFPPKKLFGNKDERVIAERRSHLEKYLRDFFS [L21D], 0.101 ± 0.11.
Under ETWTVFRRYSRFREMHKTLKAKYAELAALEFPPKKLFGNKDERVIAERRSHLEKYLRDFFS [L21A] stands 0.356 ± 0.075.
Take ETWTVFRRYSRFREMHKTLKNKYAELAALEFPPKKLFGNKDERVIAERRSHLEKYLRDFFS [L21N]: the abundance fitness is -0.289 ± 0.25.
On to ETWTVFRRYSRFREMHKTLKQKYAELAALEFPPKKLFGNKDERVIAERRSHLEKYLRDFFS [L21Q], for which the abundance fitness was determined as 0.159 ± 0.16.
As for ETWTVFRRYSRFREMHKTLKSKYAELAALEFPPKKLFGNKDERVIAERRSHLEKYLRDFFS [L21S], the abundance fitness stood at 0.254 ± 0.06.
In the case of ETWTVFRRYSRFREMHKTLKGKYAELAALEFPPKKLFGNKDERVIAERRSHLEKYLRDFFS [L21G], the abundance fitness is -0.028 ± 0.031.
Turning to ETWTVFRRYSRFREMHKTLKVKYAELAALEFPPKKLFGNKDERVIAERRSHLEKYLRDFFS [L21V], the abundance fitness was found to be 0.114 ± 0.054.
Under ETWTVFRRYSRFREMHKTLKMKYAELAALEFPPKKLFGNKDERVIAERRSHLEKYLRDFFS [L21M] stands 0.147 ± 0.096.
On to ETWTVFRRYSRFREMHKTLKRKYAELAALEFPPKKLFGNKDERVIAERRSHLEKYLRDFFS [L21R], for which the abundance fitness worked out at 0.163 ± 0.056.
As for ETWTVFRRYSRFREMHKTLKCKYAELAALEFPPKKLFGNKDERVIAERRSHLEKYLRDFFS [L21C], the abundance fitness was -0.131 ± 0.077.
In the case of ETWTVFRRYSRFREMHKTLKYKYAELAALEFPPKKLFGNKDERVIAERRSHLEKYLRDFFS [L21Y], the abundance fitness is -0.477 ± 0.18.
For ETWTVFRRYSRFREMHKTLKTKYAELAALEFPPKKLFGNKDERVIAERRSHLEKYLRDFFS [L21T], the abundance fitness is -0.079 ± 0.13.
Under ETWTVFRRYSRFREMVKTLKLKYAELAALEFPPKKLFGNKDERVIAERRSHLEKYLRDFFS [H16V] stands 0.342 ± 0.053; under ETWTVFRRYSRFREMWKTLKLKYAELAALEFPPKKLFGNKDERVIAERRSHLEKYLRDFFS [H16W], 0.534 ± 0.051; under ETWTVFRRYSRFREMRKTLKLKYAELAALEFPPKKLFGNKDERVIAERRSHLEKYLRDFFS [H16R], -0.073 ± 0.046.
As for ETWTVFRRYSRFREMYKTLKLKYAELAALEFPPKKLFGNKDERVIAERRSHLEKYLRDFFS [H16Y], the abundance fitness is 0.167 ± 0.089.
Consider ETWTVFRRYSRFREMSKTLKLKYAELAALEFPPKKLFGNKDERVIAERRSHLEKYLRDFFS [H16S], for which the abundance fitness is -0.083 ± 0.058.
Consider ETWTVFRRYSRFREMTKTLKLKYAELAALEFPPKKLFGNKDERVIAERRSHLEKYLRDFFS [H16T], for which the abundance fitness turned out to be 0.144 ± 0.058.
